Test results from patent US20180186871A1.
Positions count from the first letter of the chain named. One block for each binder: values may come before it.

Biological target: T1, murine IL-11 (mouse) (UniProt P47873)
T1 sequence (looked up): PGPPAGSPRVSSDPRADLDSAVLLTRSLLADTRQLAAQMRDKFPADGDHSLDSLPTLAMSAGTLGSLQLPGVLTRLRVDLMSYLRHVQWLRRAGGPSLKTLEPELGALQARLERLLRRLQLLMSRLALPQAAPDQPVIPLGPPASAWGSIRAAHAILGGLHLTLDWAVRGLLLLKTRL
Assay: ELISA binding signal

B3: YU100-A11 (scFv)
scFv: EVQLQQSGGGVVQPGRSLRLSCAASGFTFSSYGMHWVRQAPGKGLEWVAVISYDGSNKYYADSVKGRFTISRDNSKNTLYLQMNSLRAEDTAVYYCAKIGATDPLDYWGQGTLVTVSSGSASAPKLEEGEFSEARVQSALTQPRSVSGSPGQSVTISCTGTSSDVGGYNYVSWYQQHPGKAPKLMIYDVSKRPSGVPDRFSGSKSGNTASLTISGLQAEDEADYYCCSYAGSYTWVFGGGTKLTVL
- mIL11 - average signal: 0.372

B4: YU100-E07 (scFv)
scFv: B3 scFv with E1Q, Q6E, K58R, T69A, N169D, K183E, S190T, P197A, S232R
- mIL11 - average signal: 0.247

The remaining lines, values ahead:

- mIL11 - average signal: 0.601
B1: YU112-F05 (scFv)
scFv: EVQLVQSGGGVVQPGRSLRLSCAASGFTFGSYGMHWVRQAPGKGLEWVAVISYDGSNKYYADSVKGRFTISRDNSKNTLYLQMNSLRAEDTAVYYCAKIGATDPLDYWGQGTLVTVSSGSASAPKLEEGEFSEARVQSALTQPRSVSGSPGQSVTISCTGTSSDVGGYNYVSWYQQHPGKAPKLIIYDVNNRPSGVSNRFSASKSGNTASLTISGLQAEDEADYYCNSYTSGSTWVFGGGTKLTVL

- mIL11 - average signal: 0.188
B2: YU100-H02 (scFv)
scFv: QVQLQQSGGGVVQPGRSLRLSCAASGFTFSSYGMHWVRQAPGKGLEWVAVISYDGSNKYYADSVKGRFTISRDNSKNTLYLQMNSLRAEDTAVYYCARIMGYDYGDYDVVDYWGQGTLVTVSSGSASAPKLEEGEFSEARVQSALTQPRSVSRSPGQSVTISCTGTSSDVGTYNYVSWYQQHPGKAPKLMIYDVSKRPSGVPDRFSGSKSGNTASLTISGLQAEDEADYYCCSYAGFYTWVFGGGTKLTVL
